Assay results taken from article PMC6036693, “An iterative computational design approach to increase the thermal endurance of a mesophilic enzyme” (Biotechnology for Biofuels, 2018).

Biological target: the molecule itself
Assay: crystal structure; PDC_(2.03) at 6 mg/mL in 20 mM Tris pH 7.5, 100 mM NaCl, 1 mM MgCl2, 0.5 mM DTT, 0.1 mM TPP; crystals grown in 0.1 M MES monohydrate pH 6.0, 2.4 M ammonium sulfate at 20 °C; two molecules in the asymmetric unit

B1: PDC_(2.03), computationally designed thermostable variant of Zymomonas mobilis pyruvate decarboxylase (enzyme)
chain: MDYTVGTYLAERLVQIGLKHHFAVAGDYNLVLLDNLLDNKNMEQVYCCNELNCGFSAEGYARAKGAAAAVVTYSVGALSAFDAIGGAYAENLPVILISGAPNNNDHAAAHVLHHALGKTDYHYQLEMAKNITAAAEAIYTPEEAPAKIDHVIKTALREKKPVYLEIACNIASMPCAAPGPASALFNDEASDEASLNAAVEETLKFIENRDKVAVLVGSKLRAAAAEEAAVKFADALGGAVATMAAAKSFFPEENPHYIGTSWGEVSYPGVEKTMKEADAVIALAPVFNDYSTTGWTDIPDPKKLVLAEPRSVVVNGIRFPSVHLKDYLTRLAEKVSKKTGALDFFKSLNAGELKKADPADPSAPLVNAEIARQIEDLLTPNTTVIAETGDSWFNAQRMKLPNGARVEYEMQWGHIGWSVPAAFGYAVGAPERRNILMVGDGSFQLTAQEVAQMVRLKLPVIIFLINNYGYTIEVMIHDGPYNNIKNWDYAALMEVFNGNGGYDSGAGKGLKAKTAAELEEAIKVALDNTDGPTLIECFIAREDCTEELVKWGERVAAANSRKPVNKLL
notes: the wild-type structures 2WVA and 2WVG served as design template and search model; Crystallised with thiamine pyrophosphate (TPP) and Mg2+; the asymmetric unit of 5TMA holds two molecules; also called variant 2.03; source: E. coli BL21 (DE3), purified (HisPur Cobalt column, Superdex 200 size-exclusion chromatography)
B1: binds.
